Reference: article doi:10.1101/2020.05.01.070730 (bioRxiv, 2020)

Molecular target: T1, MutS (Pseudomonas aeruginosa, UniProt Q9HY08 1-855)
T1 sequence: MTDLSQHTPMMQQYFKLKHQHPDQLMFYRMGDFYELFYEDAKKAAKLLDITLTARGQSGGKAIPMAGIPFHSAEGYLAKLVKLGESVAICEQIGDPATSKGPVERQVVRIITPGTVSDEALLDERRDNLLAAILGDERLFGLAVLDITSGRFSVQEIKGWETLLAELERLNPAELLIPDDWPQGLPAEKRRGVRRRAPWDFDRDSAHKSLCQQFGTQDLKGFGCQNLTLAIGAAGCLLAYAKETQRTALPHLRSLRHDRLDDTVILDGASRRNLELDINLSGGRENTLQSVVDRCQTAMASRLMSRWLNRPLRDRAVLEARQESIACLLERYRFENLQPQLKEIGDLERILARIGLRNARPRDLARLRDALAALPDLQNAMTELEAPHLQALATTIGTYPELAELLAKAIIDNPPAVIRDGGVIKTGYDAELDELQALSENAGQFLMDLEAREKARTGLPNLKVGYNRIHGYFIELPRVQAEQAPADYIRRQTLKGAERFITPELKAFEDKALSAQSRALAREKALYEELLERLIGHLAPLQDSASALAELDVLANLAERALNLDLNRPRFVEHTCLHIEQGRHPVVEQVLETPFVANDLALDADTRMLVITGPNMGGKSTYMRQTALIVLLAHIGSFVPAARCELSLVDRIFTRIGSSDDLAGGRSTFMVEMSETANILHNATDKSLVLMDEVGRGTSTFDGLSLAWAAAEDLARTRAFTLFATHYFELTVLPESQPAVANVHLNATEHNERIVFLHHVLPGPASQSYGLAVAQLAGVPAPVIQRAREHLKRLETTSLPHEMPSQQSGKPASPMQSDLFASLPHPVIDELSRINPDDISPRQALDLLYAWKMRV
Experiment: SPR

B1: GT-pDNA (GT 8 nt from 3'-OH) (dsDNA)
DNA 1: ATGTGAATCAGTATGGTTGCTATCTGC
DNA 2: ATTTCCTTCAGCAGATAGTAACCATACTGATTCACAT
**Q.** B1 was tested. Which Kd did it give?
**A.** The Kd was 53.3 ± 3.7 nM.
